Hu3 Proliferation (ED50), KIRA (ED50) and IC50 data for four molecules are collected here from patent publication US20060177441A1 (Genentech, published 2006).

Experiment [1] addresses c-mpl (thrombopoietin receptor) on HU-03 cells, human platelets or human cord blood cells (human) (UniProt P40238). Briefly: cell-based or functional assay.
Experiment [2] deals with mpl-Rse.gD chimeric receptor (human) (UniProt P40238). Briefly: cell-based or functional assay.
Experiment [3] has as its target c-mpl (thrombopoietin receptor) on HU-03 cells, human platelets or human cord blood cells (human) (UniProt P40238). Put plainly: Hu3 Binding: competition with 125I-TPO (100 pM) on HU-03 cells.
Experiment [4] shares this target. Briefly: Platelets: competition with 125I-TPO (100 pM) on human platelets.
The target of another experiment is T1, mpl-Ig (UniProt P40238 26-491).
T1 construct: Used as conditioned medium of mpl-Ig-transfected 293 cells, captured on anti-human IgG Fc plates; also called Mpl (Mpl/TPO ELISA); not shown: Ig part, captured by rabbit anti-human IgG Fc
T1 sequence (looked up): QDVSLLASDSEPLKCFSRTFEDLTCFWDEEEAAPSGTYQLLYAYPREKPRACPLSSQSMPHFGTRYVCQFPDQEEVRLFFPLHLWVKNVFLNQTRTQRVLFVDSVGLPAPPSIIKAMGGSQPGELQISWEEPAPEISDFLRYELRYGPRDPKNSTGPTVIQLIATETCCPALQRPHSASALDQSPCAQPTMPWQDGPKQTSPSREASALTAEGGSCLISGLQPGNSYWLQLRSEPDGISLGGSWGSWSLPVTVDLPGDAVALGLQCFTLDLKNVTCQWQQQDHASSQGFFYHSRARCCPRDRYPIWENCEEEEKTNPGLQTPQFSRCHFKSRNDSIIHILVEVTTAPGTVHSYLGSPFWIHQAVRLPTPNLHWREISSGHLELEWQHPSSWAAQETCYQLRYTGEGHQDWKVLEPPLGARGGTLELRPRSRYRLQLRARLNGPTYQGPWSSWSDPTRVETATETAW
Put plainly: Mpl/TPO ELISA: inhibition of biotinylated TPO binding to captured mpl-Ig.

In experiment [5] the target is T2, c-mpl (thrombopoietin receptor) on HU-03 cells, human platelets or human cord blood cells (human, UniProt P40238 26-635).
T2 construct: whole, on cells; also called mpl receptor; TPO receptor
T2 sequence (looked up): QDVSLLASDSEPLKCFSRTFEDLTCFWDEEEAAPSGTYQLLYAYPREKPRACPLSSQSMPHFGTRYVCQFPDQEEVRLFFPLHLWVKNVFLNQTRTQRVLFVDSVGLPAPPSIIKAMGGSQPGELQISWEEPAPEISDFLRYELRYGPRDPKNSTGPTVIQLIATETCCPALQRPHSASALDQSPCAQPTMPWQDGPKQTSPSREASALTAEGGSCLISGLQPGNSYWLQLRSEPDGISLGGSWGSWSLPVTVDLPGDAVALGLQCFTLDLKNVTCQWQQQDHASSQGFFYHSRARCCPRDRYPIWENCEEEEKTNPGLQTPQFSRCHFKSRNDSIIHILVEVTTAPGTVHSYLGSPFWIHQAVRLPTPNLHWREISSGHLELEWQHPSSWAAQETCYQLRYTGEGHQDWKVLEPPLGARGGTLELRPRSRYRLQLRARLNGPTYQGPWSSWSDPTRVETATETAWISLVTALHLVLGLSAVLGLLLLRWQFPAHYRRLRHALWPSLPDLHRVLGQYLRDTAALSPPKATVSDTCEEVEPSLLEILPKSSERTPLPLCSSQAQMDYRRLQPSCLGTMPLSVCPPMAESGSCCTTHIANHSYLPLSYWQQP
Put plainly: Hu3 Binding: competition with 125I-TPO (100 pM) on HU-03 cells.
Procedure: (§1) HU-03 cells were agitated during the incubation period to keep them in suspension. The reaction mixture was overlayed on 1 ml 20% sucrose-HBSSB and microcentrifuged at 13,500 rpm for five minutes. The supernatants were aspirated, tube bottoms containing the cell pellets were cut off, and cell- or platelet-associated radioactivity was measured with an Iso Data Model 120 gamma counter.

Experiment [6] addresses T2, c-mpl (thrombopoietin receptor) on …. Briefly: Platelets: competition with 125I-TPO (100 pM) on human platelets.
Procedure: as §1

B1: 12B5 IgG (antibody, from another filing)
scFv: QVQLVQSGGGLVRPGGSLSLSCAVSGITLRTYGMHWVRQAPGKGLEWVAGISFDGRSEYYADSVQGRFTISRDSSKNTLYLQMNSLRAEDTAVYYCARGAHYGFDIWGQGTMVTVSSGGGGTGGGGSGGGGSDIQMTQSPSTLSASIGDRVTITCRASEGIYHWLAWYQQKPGKAPKLLIYKASSLASGAPSRFSGSGSGTDFTLTISSLQPDDFATYYCQQYSNYPLTFGGGTKLEIK
In the case of B1, the Hu3 Proliferation (ED50) in experiment [1] is 0.03 nM. The KIRA (ED50) in experiment [2] was found to be 0.4 nM. The IC50 (as a rule, the concentration at which inhibition is half-maximal) was found to be 10 nM in experiment [3], 300 nM in experiment [4] and 0.152 nM with mpl-Ig.

B2: 12E10 Fab (Fab, V domains shown)
VH: QVQLQQSGPGLVKPSETLSLTCTVSGDSISSYYWSWIRQPPGKGLEWIGYIYYSGSTNYNPSLKSRVTISVDTSKSQFSLKLSSVTAADTAVYYCARGRYFDVWGRGTMVTVSS
VL: SYVLTQPPSVSGSPGQSITISCTGTSSDVGGYNYVSWYQQHPGKAPKLMIYEGSKRPSGVSNRFSGSKSGNTASLTISGLQAEDEADYYCSSYTTRSTRVFGGGTKLTVL
notes: Monovalent Fab′ from E. coli: human IgG1 CH1 ending thr-ala-ala-pro, human kappa1 CL (pXCA730) or human lambda CL (pXCA970)
In the case of B2, the IC50 in experiment [5] was 500 nM; with mpl-Ig, 180 nM.

B3: 12E10 Fab′2 (other)
VH: B2 VH
VL: B2 VL
notes: F(ab′)2 with leucine zipper, expressed in E. coli from pXCA740; copies: 2 + 2
As for B3, the IC50 stood at 10 nM in experiment [5], 500 nM in experiment [6] and 640 nM with mpl-Ig.

B4: 12E10 IgG (antibody, V domains shown)
VH: B2 VH
VL: B2 VL
notes: Full length antibody with human IgG1 CH1, CH2 and CH3 domains, expressed in 293 or CHO cells; also called full length human antibody derivative of 12E10
With B4, the figures for the IC50 (in experiment [5]; in experiment [6]; with mpl-Ig) were 50 nM, 500 nM and 0.45 nM, respectively.
